From US20250353911A1 (INHIBRX BIOSCIENCES, published 2025) come the findings set out here.

The target in assay [1] is T1, Rat serum albumin (RSA) (rat, UniProt P02770 25-608).
T1 construct: Bought protein (Sigma); also called rat albumin
Put plainly: ELISA on coated rat albumin, anti-human Fc HRP, A650, one site-total binding fit. In general terms: ELISA stands for enzyme-linked immunosorbent assay.
Description: (§1) Medisorp plates were coated with albumin protein at 2 μg/ml, 50 μl/well at 4° C. overnight (human, murine, and rat albumin-Sigma, cynomolgus monkey albumin-Abcam). 1× Fish Gelatin (blocking agent, Bethyl Laboratories) was added to albumin-coated wells followed by a 1 hour incubation at RT. Titrations of sdAb fusion proteins (starting at 100 nM, across 1:3 or down 1:4) were added and incubated for 1 hour at RT. Plates were washed 3 times with 0.1% D-PBST, and then anti-human Fc HRP antibody (1:2000 in 0.1% D-PBST, Jackson) was added and incubated for 30 minutes at RT. Plates were washed 3 times with 0.1% D-PBST, and then TMB substrate was added. Absorbance at 650 nm was read on a plate reader (Molecular Devices) and data were plotted using equation one site-total binding (Model: Y=Bmax*X/(Kd+X)+NS*X+Background, GraphPad Prism).

Assay [2] addresses T2, Human serum albumin (HSA) (human, UniProt P02768 25-609).
T2 construct: also called human albumin; recombinant human albumin
Put plainly: ELISA on coated human albumin, anti-human Fc HRP, A650, one site-total binding fit.
Description: as §1

Assay [3] has as its target T3, Murine serum albumin (MSA) (mouse, UniProt P07724 25-608).
T3 construct: Bought protein (Sigma); also called murine albumin; mouse albumin
Put plainly: ELISA on coated murine albumin, anti-human Fc HRP, A650, one site-total binding fit.
Description: as §1

Assay [4] has as its target T4, Cynomolgus monkey serum albumin (CSA) (cynomolgus monkey, UniProt A2V9Z4 25-608).
T4 construct: Bought protein (Abcam); also called cynomolgus monkey albumin
Put plainly: ELISA on coated cynomolgus monkey albumin, anti-human Fc HRP, A650, one site-total binding fit.
Description: as §1

Assay [5] addresses T4, Cynomolgus monkey serum albumin (CSA). The assay is described as above. The source holds these as a separate data set.
Description: as §1
The target in assay [6] is T1, Rat serum albumin (RSA). Nature of the assay: ELISA on coated rat albumin, anti-human Fc HRP, A650, one site-total binding fit. This is another data set of the same source.
Description: as §1
Assay [7] deals with T2, Human serum albumin (HSA). Put plainly: ELISA on coated human albumin, anti-human Fc HRP, A650, one site-total binding fit. The source holds these as a separate data set.
Description: as §1
Assay [8] has as its target T3, Murine serum albumin (MSA). Nature of the assay: ELISA on coated murine albumin, anti-human Fc HRP, A650, one site-total binding fit. This is another data set of the same source.
Description: as §1

Read-outs that look alike come from different tables or passages of the source.

T2 sequence (P02768 25-609): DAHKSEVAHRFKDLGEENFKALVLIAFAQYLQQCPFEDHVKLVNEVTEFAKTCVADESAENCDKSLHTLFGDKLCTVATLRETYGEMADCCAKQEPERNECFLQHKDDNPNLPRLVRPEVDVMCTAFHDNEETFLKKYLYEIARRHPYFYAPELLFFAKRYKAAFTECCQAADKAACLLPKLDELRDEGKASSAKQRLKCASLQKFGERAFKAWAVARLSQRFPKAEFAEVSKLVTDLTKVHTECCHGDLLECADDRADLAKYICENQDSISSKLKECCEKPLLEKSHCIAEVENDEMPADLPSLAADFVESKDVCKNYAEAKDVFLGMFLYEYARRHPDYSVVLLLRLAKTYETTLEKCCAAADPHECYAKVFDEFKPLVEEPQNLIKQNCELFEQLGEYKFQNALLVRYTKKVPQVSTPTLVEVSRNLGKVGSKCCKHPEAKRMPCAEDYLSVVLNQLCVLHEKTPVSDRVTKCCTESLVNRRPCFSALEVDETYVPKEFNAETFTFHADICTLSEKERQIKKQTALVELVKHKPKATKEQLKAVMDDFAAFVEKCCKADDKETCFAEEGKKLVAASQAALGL
T1 sequence (P02770 25-608): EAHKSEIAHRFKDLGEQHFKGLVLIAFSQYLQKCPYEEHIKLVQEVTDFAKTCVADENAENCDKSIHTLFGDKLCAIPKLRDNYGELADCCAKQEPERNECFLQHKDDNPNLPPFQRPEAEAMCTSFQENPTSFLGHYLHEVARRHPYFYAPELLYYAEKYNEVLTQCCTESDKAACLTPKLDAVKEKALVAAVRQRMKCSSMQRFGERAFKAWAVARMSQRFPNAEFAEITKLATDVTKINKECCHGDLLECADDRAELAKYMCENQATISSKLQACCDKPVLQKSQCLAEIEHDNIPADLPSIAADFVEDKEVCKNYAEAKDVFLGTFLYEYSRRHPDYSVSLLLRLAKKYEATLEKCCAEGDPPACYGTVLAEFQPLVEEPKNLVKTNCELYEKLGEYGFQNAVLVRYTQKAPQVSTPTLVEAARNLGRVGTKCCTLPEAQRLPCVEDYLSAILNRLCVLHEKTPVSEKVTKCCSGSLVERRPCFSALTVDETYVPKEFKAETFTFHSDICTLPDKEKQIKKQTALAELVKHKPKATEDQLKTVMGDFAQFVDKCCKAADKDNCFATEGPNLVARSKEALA
T4 sequence (A2V9Z4 25-608): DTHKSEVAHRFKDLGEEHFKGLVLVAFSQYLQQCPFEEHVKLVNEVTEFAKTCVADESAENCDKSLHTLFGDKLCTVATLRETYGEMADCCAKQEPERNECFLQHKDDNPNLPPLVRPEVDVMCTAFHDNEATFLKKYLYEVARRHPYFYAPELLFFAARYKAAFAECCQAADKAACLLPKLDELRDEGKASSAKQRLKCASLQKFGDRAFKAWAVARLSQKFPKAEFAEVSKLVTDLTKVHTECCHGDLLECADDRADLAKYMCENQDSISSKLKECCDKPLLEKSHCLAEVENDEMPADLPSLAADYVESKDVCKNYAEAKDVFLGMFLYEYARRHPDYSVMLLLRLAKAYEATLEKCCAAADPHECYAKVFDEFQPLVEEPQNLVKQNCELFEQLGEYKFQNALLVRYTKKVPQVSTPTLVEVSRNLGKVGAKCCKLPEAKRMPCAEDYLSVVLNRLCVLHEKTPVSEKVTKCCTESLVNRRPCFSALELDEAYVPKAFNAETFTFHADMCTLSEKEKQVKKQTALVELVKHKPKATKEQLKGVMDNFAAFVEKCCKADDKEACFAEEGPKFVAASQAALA

B1: 4A01v3 (Fc fusion)
VHH: EVQLVESGGGEVQPGGSLRLSCAASGFAFSTSGMVWVRQAPGKGLEWVSTISDDARIIRYAESVKGRFTISRDNAKNTLYLQMNSLRAEDTAVYYCATYRAGSRIGSYEDYYRGQGTLVTVKP
notes: also called Hz4A01v3; not shown: Human Fc carrier and its linker
For orientation: Kd means the equilibrium constant for the complex coming apart. For the molecule B1, the Kd is 0.162 nM in assay [1], 0.124 nM in assay [2], 0.121 nM in assay [3] and 0.338 nM in assay [4]. The molecule also registered a Bmax in assay [4] of 0.994 A650.

B2: 4A01v3-4 (Fc fusion)
VHH: EVQLVESGGGEVQPGGSLRLSCAASGFAFSTSGMSWVRQAPGKGLEWVSTISDDARIIRYAESVKGRFTISRDNAKNTLYLQMNSLRAEDTAVYYCATYRAGSRIGSYEDYYRGQGTLVTVKP
notes: also called Hz4A01v3-4; not shown: Human Fc carrier and its linker
On to B2, for which the Bmax in assay [1] came out at 1.41 A650; in assay [2], 1.43 A650; in assay [3], 1.4 A650; in assay [5] it was 1.37 A650. Moreover, the dissociation constant (Kd) in assay [1] is 0.252 nM; in assay [2], 0.151 nM; in assay [3] it was 0.241 nM; in assay [5] it was 0.181 nM.

B3: 4A01v3-7 (Fc fusion)
VHH: EVQLVESGGGEVQPGGSLRLSCAASGFAFSTSGMVWVRQAPGKGLEWVSTISDDARIIRYAESVKGRFTISRDNAKNTVYLQMNSLRAEDTAVYYCATYRAGSRIGSYEDYYRGQGTLVTVKP
notes: also called Hz4A01v3-7; not shown: Human Fc carrier and its linker
As to B3, the Bmax was 1.35 A650 in assay [1], 1.4 A650 in assay [2], 1.32 A650 in assay [3] and 1.31 A650 in assay [5]. Further, the dissociation constant Kd in assay [1] was 0.123 nM; in assay [2], 0.121 nM; in assay [3] it was 0.111 nM; in assay [5] it was 0.118 nM.

B4: 4A01v3-3 (Fc fusion, not shown: a dimerising Fc or GST; small tags and cut ends)
VHH: EVQLVESGGGEVQPGGSLRLSCAASGFAFSTSGMAWVRQAPGKGLEWVSTISDDARIIRYAESVKGRFTISRDNAKNTLYLQMNSLRAEDTAVYYCATYRAGSRIGSYEDYYRGQGTLVTVKP
notes: also called Hz4A01v3-3
For B4, the Bmax was 1.32 A650 in assay [1], 1.36 A650 in assay [2], 1.35 A650 in assay [3] and 1.35 A650 in assay [5]. The Kd in assay [1] worked out at 0.152 nM; in assay [2], 0.129 nM; in assay [3], 0.142 nM; in assay [5] it was 0.142 nM.

B5: 4A01v4 (Fc fusion, not shown: a dimerising Fc or GST; small tags and cut ends)
VHH: EVQLVESGGGEVQPGGSLRLSCAASGFAFSTSGMVWVRQAPGKGLEWVSTISDESRIIRYAESVKGRFTISRDNAKNTLYLQMNSLRAEDTAVYYCATYRAGSRIGSYEDYYRGQGTLVTVKP
notes: also called Hz4A01v4
On to B5, for which the Bmax was found to be 0.972 A650 in assay [6], 0.947 A650 in assay [7], 1.1 A650 in assay [8] and 0.954 A650 in assay [4]. Moreover, the Kd in assay [6] was found to be 0.32 nM; in assay [7], 0.378 nM; in assay [8] it was 0.25 nM; in assay [4], 0.247 nM.

B6: 4A01v6 (Fc fusion, not shown: a dimerising Fc or GST; small tags and cut ends)
VHH: EVQLVESGGGEVQPGGSLRLSCAASGFAFSTSGMVWVRQAPGKGLEWVSTISDSGRIIRYAESVKGRFTISRDNAKNTLYLQMNSLRAEDTAVYYCATYRAGSRIGSYEDYYRGQGTLVTVKP
notes: also called Hz4A01v6
B6: the Bmax in assay [6] was 1.02 A650; in assay [7], 0.94 A650; in assay [8], 1.09 A650; in assay [4], 0.961 A650. Moreover, the Kd stood at 0.273 nM in assay [6], 0.332 nM in assay [7], 0.206 nM in assay [8] and 0.225 nM in assay [4].

B7: 4A01v5 (Fc fusion, not shown: a dimerising Fc or GST; small tags and cut ends)
VHH: EVQLVESGGGEVQPGGSLRLSCAASGFAFSTSGMVWVRQAPGKGLEWVSTISDEGRIIRYAESVKGRFTISRDNAKNTLYLQMNSLRAEDTAVYYCATYRAGSRIGSYEDYYRGQGTLVTVKP
notes: also called Hz4A01v5
For the molecule B7, the Bmax in assay [6] was determined as 1 A650; in assay [7], 0.957 A650; in assay [8], 1.09 A650; in assay [4], 0.939 A650. The Kd in assay [6] was 0.26 nM; in assay [7], 0.276 nM; in assay [8] it was 0.189 nM; in assay [4] it was 0.203 nM.

B8: 4A01v8 (Fc fusion, not shown: a dimerising Fc or GST; small tags and cut ends)
VHH: EVQLVESGGGEVQPGGSLRLSCAASGFAFSTSGMVWVRQAPGKGLEWVSTISDNARIIRYAESVKGRFTISRDNAKNTLYLQMNSLRAEDTAVYYCATYRAGSRIGSYEDYYRGQGTLVTVKP
notes: also called Hz4A01v8
For B8, the Bmax in assay [6] is 1.01 A650; in assay [7] it was 0.955 A650; in assay [8], 1.1 A650. For the same molecule, the figures for the dissociation constant Kd in assay [6], in assay [7] and in assay [8] were 0.328 nM, 0.428 nM and 0.226 nM, respectively.

B9: 4A01v1 (Fc fusion)
VHH: EVQLVESGGGEVQPGGSLRLSCAASGFAFSTSGMVWVRQAPGKGLEWVSTISDDSRIIRYAESVKGRFTISRDNAKNTLYLQMNSLRAEDTAVYYCATYRAGSRIGSYEDYYRGQGTLVTVKP
notes: also called Hz4A01v1; not shown: Human Fc carrier and its linker
In the case of B9, the Bmax stood at 1.28 A650 in assay [1], 1.34 A650 in assay [2], 1.35 A650 in assay [3] and 1.31 A650 in assay [5]. Further, the equilibrium dissociation constant (Kd) in assay [1] was found to be 0.184 nM; in assay [2], 0.139 nM; in assay [3], 0.129 nM; in assay [5] it was 0.157 nM.

B10: 4A01v3-5 (Fc fusion)
VHH: EVQLVESGGGEVQPGGSLRLSCAASGFAFSTSGMVWYRQAPGKGLEWVSTISDDARIIRYAESVKGRFTISRDNAKNTLYLQMNSLRAEDTAVYYCATYRAGSRIGSYEDYYRGQGTLVTVKP
notes: also called Hz4A01v3-5; not shown: Human Fc carrier and its linker
Turning to B10, the Bmax in assay [1] is 1.35 A650; in assay [2], 1.39 A650; in assay [3], 1.31 A650; in assay [5] it was 1.34 A650. Moreover, the Kd was 0.162 nM in assay [1], 0.121 nM in assay [2], 0.112 nM in assay [3] and 0.126 nM in assay [5].

B11: 4A01v3-1 (Fc fusion, not shown: a dimerising Fc or GST; small tags and cut ends)
VHH: EVQLVESGGGEVQPGGSLRLSCAASGFTFSTSGMVWVRQAPGKGLEWVSTISDDARIIRYAESVKGRFTISRDNAKNTLYLQMNSLRAEDTAVYYCATYRAGSRIGSYEDYYRGQGTLVTVKP
notes: also called Hz4A01v3-1
With B11, the Bmax in assay [1] turned out to be 1.28 A650; in assay [2], 1.32 A650; in assay [3] it was 1.29 A650; in assay [5], 1.29 A650. Moreover, the Kd in assay [1] amounted to 0.13 nM; in assay [2] it was 0.123 nM; in assay [3], 0.109 nM; in assay [5] it was 0.127 nM.

B12: 4A01v3-8 (Fc fusion)
VHH: EVQLVESGGGEVQPGGSLRLSCAASGFAFSTSGMVWVRQAPGKGLEWVSTISDDARIIRYAESVKGRFTISRDNAKNTLYLQMNSLRAEDTAVYYCATYRAGSRIGSYEDYYWGQGTLVTVKP
notes: also called Hz4A01v3-8; not shown: Human Fc carrier and its linker
Take B12: the Kd was 0.169 nM in assay [1], 0.136 nM in assay [2], 0.143 nM in assay [3] and 0.147 nM in assay [5]. Moreover, the Bmax in assay [5] stood at 1.35 A650.

B13: 4A01v9 (Fc fusion, not shown: a dimerising Fc or GST; small tags and cut ends)
VHH: EVQLVESGGGEVQPGGSLRLSCAASGFAFSTSGMVWVRQAPGKGLEWVSTISDDTRIIRYAESVKGRFTISRDNAKNTLYLQMNSLRAEDTAVYYCATYRAGSRIGSYEDYYRGQGTLVTVKP
notes: also called Hz4A01v9
Regarding B13, the Bmax turned out to be 1.27 A650 in assay [1], 1.35 A650 in assay [2], 1.3 A650 in assay [3] and 1.29 A650 in assay [5]. Besides, the Kd in assay [1] turned out to be 0.144 nM; in assay [2] it was 0.115 nM; in assay [3], 0.112 nM; in assay [5], 0.117 nM.
